From US20260184782A1 (TWIST BIOSCIENCE, published 2026)
Residue numbers refer to the chain shown, from its start.

B1: TIGIT-SC12 (Fc fusion)
VHH: EVQLVESGGGLVQPGGSLRLSCAASGRTFSAYGMGWFRQAPGKEREFVAAITPSSRTTYYADSVKGRFTISADNSKNTAYLQMNSLKPEDTAVYYCAKDNWGEWLMPWWGQGTLVTVSS
notes: VHH-Fc
B2: TIGIT-SC22 (Fc fusion)
VHH: EVQLVESGGGLVQPGGSLRLSCAASGFTLENNMMGWFRQAPGKEREMVAAISWSGGSALYADSVKGRFTISADNSKNTAYLQMNSLKPEDTAVYYCARGDGYSYGNFDYWGQGTLVTVSS
notes: VHH-Fc
B3: TIGIT-SC5 (Fc fusion)
VHH: EVQLVESGGGLVQPGGSLRLSCAASGFAFGDSWMGWFRQAPGKEREWVASVLRGGYTWYADSVKGRFTISADNSKNTAYLQMNSLKPEDTAVYYCARESEGWFDPWGQGTLVTVSS
notes: VHH-Fc
B4: TIGIT-SC23 (Fc fusion)
VHH: B3 VHH with A28T, F29L, G30S, D31S, S32N, S99R, E100L
notes: VHH-Fc
B5: TIGIT-SC183 (Fc fusion)
VHH: B3 VHH with R97K, E98D, S99R, E100S, G101Y, W102S, P105Y
notes: VHH-Fc
B6: TIGIT-SC8 (Fc fusion)
VHH: EVQLVESGGGLVQPGGSLRLSCAASGFAFSSYAMGWFRQAPGKEREFVARITWNGGSAYYADSVKGRFTISADNSKNTAYLQMNSLKPEDTAVYYCAAGATGWFDPWGQGTLVTVSS
notes: VHH-Fc
B7: TIGIT-SC18 (Fc fusion)
VHH: EVQLVESGGGLVQPGGSLRLSCAASGFSLDYYAMGWFRQAPGKEREVVAIIDTNGDNTLYADSVKGRFTISADNSKNTAYLQMNSLKPEDTAVYYCARGRGYGDYVGAYWGQGTLVTVSS
notes: VHH-Fc
B8: TIGIT-SC173 (Fc fusion)
VHH: EVQLVESGGGLVQPGGSLRLSCAASGFTFSPSWMGWFRQAPGKEREWVASVLRGGYTWYADSVKGRFTISADNSKNTAYLQMNSLKPEDTAVYYCATERRLGVWGQGTLVTVSS
notes: VHH-Fc
B9: TIGIT-SC42 (Fc fusion)
VHH: EVQLVESGGGLVQPGGSLRLSCAASGNTFSGGFMGWFRQAPGKEREWVATVLRGGYTWYADSVKGRFTISADNSKNTAYLQMNSLKPEDTAVYYCASGGFLASWGQGTLVTVSS
notes: VHH-Fc
B10: TIGIT-SC195 (Fc fusion)
VHH: B8 VHH with T28A, P31S, S32D, T97R, E98G, R99E, R100G, L101F, G102D, V103Y
B11: TIGIT-SC25 (Fc fusion)
VHH: B9 VHH with T50S, A96T, S97T, G98V, F100Y, L101G, A102D, S103Y
notes: VHH-Fc
B12: TIGIT-SC191 (Fc fusion)
VHH: B8 VHH with T28V, P31S, S32D, T97R, E98G, R99D, R100S, L101M, G102D
notes: VHH-Fc
B13: TIGIT-SC171 (Fc fusion)
VHH: B8 VHH with S30D, P31R
notes: VHH-Fc
B14: TIGIT-SC201 (Fc fusion)
VHH: B8 VHH with A96T, T97R, E98D, R99G, R100G, L101F, G102D, V103P
notes: VHH-Fc
B15: TIGIT-SC203 (Fc fusion)
VHH: B8 VHH with T97R, E98D, R100G, L101G, G102S, V103D
notes: VHH-Fc
B16: TIGIT-SC198 (Fc fusion)
VHH: B8 VHH with W47Y, T97S, R99G, R100D, L101P, G102D, V103Y
notes: VHH-Fc
B17: TIGIT-SC20 (Fc fusion)
VHH: EVQLVESGGGLVQPGGSLRLSCAASGNTFSGGFMGWFRQAPGKEREWVASVLRGGYTWYADSVKGRFTISADNSKNTAYLQMNSLKPEDTAVYYCATPRGYWGQGTLVTVSS
notes: VHH-Fc
B18: TIGIT-SC7 (Fc fusion)
VHH: EVQLVESGGGLVQPGGSLRLSCAASGRSFSMYVMGWFRQAPGKEREGVSFISGSDGSTLYADSVKGRFTISADNSKNTAYLQMNSLKPEDTAVYYCARGSIAARPVFFDYWGQGTLVTVSS
notes: VHH-Fc
B19: TIGIT-SC9 (Fc fusion)
VHH: EVQLVESGGGLVQPGGSLRLSCAASGNTFSGGFMGWFRQAPGKEREWVASVLRGGYTWYADSVKGRFTISADNSKNTAYLQMNSLKPEDTAVYYCVNGYSYGRDYWGQGTLVTVSS
notes: VHH-Fc
B20: TIGIT-SC6 (Fc fusion)
VHH: EVQLVESGGGLVQPGGSLRLSCAASGNTFSGGFMGWFRQAPGKEREWVASVLRGGYTWYADSVKGRFTISADNSKNTAYLQMNSLKPEDTAVYYCAISPVAWHAKFDSWGQGTLVTVSS
notes: VHH-Fc
B21: TIGIT-SC16 (Fc fusion)
VHH: EVQLVESGGGLVQPGGSLRLSCAASGTTFSSAAMGWFRQAPGKEREWVASVLRGGYTWYADSVKGRFTISADNSKNTAYLQMNSLKPEDTAVYYCARDPVELGDYWGQGTLVTVSS
notes: VHH-Fc
B22: TIGIT-SC2 (Fc fusion)
VHH: EVQLVESGGGLVQPGGSLRLSCAASGFTLSSNWMGWFRQAPGKEREMVAAIDWSGGSALYADSVKGRFTISADNSKNTAYLQMNSLKPEDTAVYYCAKDALSNSARFDHWGQGTLVTVSS
notes: VHH-Fc
B23: TIGIT-SC19 (Fc fusion)
VHH: EVQLVESGGGLVQPGGSLRLSCAASGRTYDAMGWFRQAPGKEREWVASVLRGGYTWYADSVKGRFTISADNSKNTAYLQMNSLKPEDTAVYYCARDVDYRFDSWGQGTLVTVSS
notes: VHH-Fc
B24: TIGIT-SC13 (Fc fusion)
VHH: EVQLVESGGGLVQPGGSLRLSCAASGRTFSFMGWFRQAPGKEREWVASVLRGGYTWYADSVKGRFTISADNSKNTAYLQMNSLKPEDTAVYYCATESMDYWGQGTLVTVSS
notes: VHH-Fc
B25: TIGIT-SC4 (Fc fusion)
VHH: EVQLVESGGGLVQPGGSLRLSCAASGSIDRINAMGWFRQATGKEREWVASVLRGGYTWYADSVKGRFTISADNSKNTAYLQMNSLKPEDTAVYYCARDSYSTSFWFDPWGQGTLVTVSS
notes: VHH-Fc
B26: TIGIT-SC3 (Fc fusion)
VHH: EVQLVESGGGLVQPGGSLRLSCAASGTFQRINAMGWFRQAPGKEREFVSTINWSGSNTYYADSVKGRFTISADNSKNTAYLQMNSLKPEDTAVYYCASSYSSSSGLGDIWGQGTLVTVSS
notes: VHH-Fc
B27: TIGIT-SC14 (Fc fusion)
VHH: EVQLVESGGGLVQPGGSLRLSCAASGSISSIHAMGWFRQAPGKEREFVATISRSGVGTFYADSVKGRFTISADNSKNTAYLQMNSLKPEDTAVYYCASSYSSSSGLGDIWGQGTLVTVSS
notes: VHH-Fc
B28: TIGIT-SC165 (Fc fusion)
VHH: EVQLVESGGGLVQPGGSLRLSCAASGNTFSGGFMGWFRQAPGKEREWVASVLRGGYTWYADSVKGRFTISADNSKNTAYLQMNSLKPEDTAVYYCTTEGSGWRNWGQGTLVTVSS
notes: VHH-Fc
B29: TIGIT-SC164 (Fc fusion)
VHH: B28 VHH with N27F, S30D, G31R, G32S, F33W, W47F
notes: VHH-Fc
B30: TIGIT-SC37 (Fc fusion)
VHH: B28 VHH with T96V, T97F, E98G, S100V, G101W, W102Q, R103D, N104V
notes: VHH-Fc
B31: TIGIT-SC17 (Fc fusion)
VHH: EVQLVESGGGLVQPGGSLRLSCAASGFDFSVSWMGWFRQAPGKEREWVASVLRGGYTWYADSVKGRFTISADNSKNTAYLQMNSLKPEDTAVYYCAREGSWFDYWGQGTLVTVSS
notes: VHH-Fc
B32: TIGIT-SC189 (Fc fusion)
VHH: B28 VHH with T96V, E98D, G99V, S100G, G101A, W102P, R103D, N104Y
notes: VHH-Fc
B33: TIGIT-SC15 (Fc fusion)
VHH: EVQLVESGGGLVQPGGSLRLSCAASGSILSFNHIGWFRQAPGKEREGVAWIARYDGSTLYADSVKGRFTISADNSKNTAYLQMNSLKPEDTAVYYCARARGGYVDYWGQGTLVTVSS
notes: VHH-Fc
B34: TIGIT-SC10 (Fc fusion)
VHH: EVQLVESGGGLVQPGGSLRLSCAASGNTFSGGFMGWFRQAPGKEREWVASVLRGGYTWYADSVKGRFTISADNSKNTAYLQMNSLKPEDTAVYYCASDPWGTRYFDHWGQGTLVTVSS
notes: VHH-Fc
B35: TIGIT-SC21 (Fc fusion)
VHH: B34 VHH with S97R, D98G, P99G, W100A, T102S, R103D, Y104W, D106G, H107P
notes: VHH-Fc
B36: TIGIT-SC175 (Fc fusion)
VHH: EVQLVESGGGLVQPGGSLRLSCAASGNTFSGGFMGWFRQAPGKEREWVASVLRGGYTWYADSVKGRFTISADNSKNTAYLQMNSLKPEDTAVYYCTTDALRFLEWPWWGQGTLVTVSS
notes: VHH-Fc
B37: TIGIT-SC61 (Fc fusion)
VHH: B34 VHH with A96T, S97R, D98G, P99D, W100T, G101A, T102M, R103A, Y104T, H107Y
notes: VHH-Fc

These binders were tested against T1, human TIGIT-Fc (human, UniProt Q495A1 22-141, limits assumed) (assay: CD155 competition ELISA, single point; further: test concentration or dose not given here).
T1 construct: not shown: Fc; not described
T1 sequence (looked up): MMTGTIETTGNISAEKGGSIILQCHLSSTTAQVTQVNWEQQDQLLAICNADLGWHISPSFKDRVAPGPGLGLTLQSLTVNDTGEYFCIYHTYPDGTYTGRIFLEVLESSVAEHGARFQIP
Procedure: TIGIT/CD155 inhibition of VHH-Fcs were assessed using an ELISA assay (Table 10B). Briefly, human TIGIT-Fc was coated on a plate & then incubated with VHH-Fcs and human CD155-biotin. Bound CD155-biotin was detected using a streptavidin-HRP conjugate visualized with TMB. Strong inhibitors from the single point screen were titrated to determine EC50 (Table 10C).

Binder | OD (450 nm) [OD]
B1 | 0.622
B2 | 0.552
B3 | 0.564
B4 | 0.424
B5 | 0.5
B6 | 0.817
B7 | 0.716
B8 | 0.578
B9 | 0.341
B10 | 0.426
B11 | 0.469
B12 | 0.49
B13 | 0.571
B14 | 0.509
B15 | 0.521
B16 | 0.514
B17 | 0.726
B18 | 0.735
B19 | 0.756

Binder | OD (450 nm) [OD]
B20 | 0.558
B21 | 0.471
B22 | 0.407
B23 | 0.746
B24 | 0.666
B25 | 0.579
B26 | 0.748
B27 | 0.61
B28 | 0.324
B29 | 0.363
B30 | 0.341
B31 | 0.553
B32 | 0.486
B33 | 0.576
B34 | 0.756
B35 | 0.607
B36 | 0.59
B37 | 0.343
